The target in this assay is CD89 (Fc receptor for IgA) on polymorphonuclear cells (human) (UniProt P24071). Description: cell-based or functional assay.
CD89 (Fc receptor for IgA) on polymorphonuclear cells (human), sequence (P24071 22-287): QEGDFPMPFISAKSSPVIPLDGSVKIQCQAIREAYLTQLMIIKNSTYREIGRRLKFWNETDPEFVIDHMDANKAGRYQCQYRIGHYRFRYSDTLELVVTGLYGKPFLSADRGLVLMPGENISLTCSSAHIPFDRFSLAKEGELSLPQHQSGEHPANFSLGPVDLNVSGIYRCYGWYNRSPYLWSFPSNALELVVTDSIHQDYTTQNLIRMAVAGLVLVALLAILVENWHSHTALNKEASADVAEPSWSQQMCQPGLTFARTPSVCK

Regarding anti-CD89 monoclonal antibody MIP8a, the percentage blocking (polymorphonuclear cells bound to IgA-coated beads, 2-D migration assay) was 75 to 90%.

Substance anti-CD89 monoclonal antibody MY43 yielded a percentage blocking (polymorphonuclear cells bound to IgA-coated beads, 2-D migration assay) of 30%.
